Data on 6 molecules can be found in publication PMC5841803, “Retinal guanylyl cyclase activating protein 1 forms a functional dimer” (PLoS ONE, 2018).

Like-named read-outs stand apart in the source and are kept apart here.

For series [1], the target named is T1, human retinal guanylyl cyclase RetGC1 (human, UniProt Q02846 52-1103).
T1 sequence (looked up): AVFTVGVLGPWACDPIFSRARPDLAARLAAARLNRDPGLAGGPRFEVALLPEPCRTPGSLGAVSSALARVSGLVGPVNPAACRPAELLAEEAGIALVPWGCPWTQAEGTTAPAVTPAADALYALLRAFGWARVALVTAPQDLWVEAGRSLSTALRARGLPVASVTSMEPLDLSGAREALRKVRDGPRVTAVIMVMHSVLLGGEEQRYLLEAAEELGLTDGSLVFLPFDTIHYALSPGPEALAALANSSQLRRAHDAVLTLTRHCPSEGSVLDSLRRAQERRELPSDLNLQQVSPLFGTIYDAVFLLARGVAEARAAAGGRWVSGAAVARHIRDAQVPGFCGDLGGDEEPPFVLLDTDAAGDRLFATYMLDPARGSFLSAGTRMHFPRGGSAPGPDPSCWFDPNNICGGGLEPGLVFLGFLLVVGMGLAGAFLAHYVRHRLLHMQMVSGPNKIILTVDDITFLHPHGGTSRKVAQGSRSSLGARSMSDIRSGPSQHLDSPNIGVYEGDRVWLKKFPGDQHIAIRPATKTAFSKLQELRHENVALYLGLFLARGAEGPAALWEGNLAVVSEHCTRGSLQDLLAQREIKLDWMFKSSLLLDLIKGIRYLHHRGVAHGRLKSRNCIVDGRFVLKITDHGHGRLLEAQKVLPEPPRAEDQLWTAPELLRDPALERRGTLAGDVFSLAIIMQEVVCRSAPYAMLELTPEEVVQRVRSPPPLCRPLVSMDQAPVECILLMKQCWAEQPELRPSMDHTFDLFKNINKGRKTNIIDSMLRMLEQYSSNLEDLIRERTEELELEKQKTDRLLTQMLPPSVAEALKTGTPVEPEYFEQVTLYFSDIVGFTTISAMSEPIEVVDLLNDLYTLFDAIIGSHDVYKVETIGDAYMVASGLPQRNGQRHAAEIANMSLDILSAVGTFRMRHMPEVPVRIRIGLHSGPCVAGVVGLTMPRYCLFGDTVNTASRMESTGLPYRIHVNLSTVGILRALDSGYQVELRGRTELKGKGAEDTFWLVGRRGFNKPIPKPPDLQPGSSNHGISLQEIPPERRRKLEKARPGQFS

Series [2] concerns the molecule itself. The experiment in a line: EPR-DEER; spin-labelled (MTSSL) single-Cys GCAP1 at ~300 uM, 10 mM Tris-d11 pH 7.4, 2 mM MgCl2, D2O, 25% glycerol-d8, frozen, 50 or 80 K; Ca2+-free/Mg2+-bound state, similar data in the Ca2+-bound state; intermolecular spin-label distances.
Series [3] concerns the target T1, human retinal guanylyl cyclase RetGC1. Briefly: cell-based or functional assay.
Series [4] deals with the molecule itself. The experiment in a line: SEC; analytical SEC, Superdex 200 HR 10/30, 100 uL of 200 uM protein, 10 mM Tris pH 7.4, 100 mM NaCl, 1 mM DTT, 4 C, with saturating Mg2+ (2 mM) or Ca2+ (2 mM); molar mass from elution time against protein standards.
Series [5] deals with the molecule itself. The experiment in a line: NMR pulsed-field gradient diffusion; translational diffusion coefficient of spin-labelled GCAP1^CL(T29C); molar mass from D.

B1: Cys-less mutant of GCAP1 (GCAP1^CL) (natural protein)
chain: MGNIMSGKSVEELSSTETHQWYKKFMTETPSGQLTLYEFRQFFGLKNLSPWASQYVEQMFETFDFNKDGYIDFMEYVAALSLVLKGKVEQKLRWYFKLYDVDGNGTIDRDELLTIIRAIRAINPTSDSTMTAEEFTDTVFSKIDVNGDGELSLEEFMEGVQKDQMLLDTLTRSLDLTRIVRRLQNGEQDEEGASGRETEAAEADG
modifications: N-terminal myristoylation
Take B1: the EC50 of activation of RetGC1 (HEK293 membranes) in the absence of Ca2+ (EGTA), guanylyl cyclase assay in series [1] came to 14 µM.

B2: GCAP1^CL(E133C), nitroxide spin-labelled (natural protein, bovine, UniProt P46065 1-205, looked up)
chain: MGNIMSGKSVEELSSTETHQWYKKFMTETPSGQLTLYEFRQFFGLKNLSPWASQYVEQMFETFDFNKDGYIDFMEYVAALSLVLKGKVEQKLRWYFKLYDVDGNGTIDRDELLTIIRAIRAINPTSDSTMTACEFTDTVFSKIDVNGDGELSLEEFMEGVQKDQMLLDTLTRSLDLTRIVRRLQNGEQDEEGASGRETEAAEADG
modifications: N-terminal myristoylation; MTSSL nitroxide spin-label on Cys133
notes: GCAP1, bovine, D6S background, Cys-less (all four native Cys C18, C29, C106, C125 to Thr), with a single Cys at 133; source: E. coli BL21(DE3), co-expressed with yeast N-myristoyl CoA transferase, purified, labelled with MTSSL
Take B2: in series [2], the binding result is listed as “binds”.

B3: GCAP1^CL(E154C), nitroxide spin-labelled (natural protein, bovine, UniProt P46065 1-205, looked up)
chain: MGNIMSGKSVEELSSTETHQWYKKFMTETPSGQLTLYEFRQFFGLKNLSPWASQYVEQMFETFDFNKDGYIDFMEYVAALSLVLKGKVEQKLRWYFKLYDVDGNGTIDRDELLTIIRAIRAINPTSDSTMTAEEFTDTVFSKIDVNGDGELSLCEFMEGVQKDQMLLDTLTRSLDLTRIVRRLQNGEQDEEGASGRETEAAEADG
modifications: N-terminal myristoylation; MTSSL nitroxide spin-label on Cys154
notes: GCAP1, bovine, D6S background, Cys-less (all four native Cys C18, C29, C106, C125 to Thr), with a single Cys at 154; source: E. coli BL21(DE3), co-expressed with yeast N-myristoyl CoA transferase, purified, labelled with MTSSL
With B3, the binding result in series [2] is reported as “binds”.

B4: wild type GCAP1 (recombinant bovine myristoylated guanylyl cyclase activating protein 1, D6S) (natural protein, UniProt P46065 1-205, looked up)
chain: MGNIMSGKSVEELSSTECHQWYKKFMTECPSGQLTLYEFRQFFGLKNLSPWASQYVEQMFETFDFNKDGYIDFMEYVAALSLVLKGKVEQKLRWYFKLYDVDGNGCIDRDELLTIIRAIRAINPCSDSTMTAEEFTDTVFSKIDVNGDGELSLEEFMEGVQKDQMLLDTLTRSLDLTRIVRRLQNGEQDEEGASGRETEAAEADG
modifications: N-terminal myristoylation
notes: 15N-labelled for NMR; also called GCAP1 D6S mutant; source: E. coli BL21(DE3), co-expressed with yeast N-myristoyl CoA transferase, purified
The stoichiometry N is a count of units in the complex or per binding partner. On to B4, for which, in series [3], the “EC50 of activation of RetGC1 (HEK293 membranes) in the absence of Ca2+ (EGTA), guanylyl cyclase assay” value is less than 2 µM. The “stoichiometry N” value in series [4] was 2.

B5: GCAP1^CL(T29C), spin-labelled (natural protein, bovine, UniProt P46065 1-205, looked up)
chain: MGNIMSGKSVEELSSTETHQWYKKFMTECPSGQLTLYEFRQFFGLKNLSPWASQYVEQMFETFDFNKDGYIDFMEYVAALSLVLKGKVEQKLRWYFKLYDVDGNGTIDRDELLTIIRAIRAINPTSDSTMTAEEFTDTVFSKIDVNGDGELSLEEFMEGVQKDQMLLDTLTRSLDLTRIVRRLQNGEQDEEGASGRETEAAEADG
modifications: N-terminal myristoylation; MTSSL spin-label on Cys29 (N-O group reduced for the HSQC spectrum)
notes: GCAP1, bovine, D6S background, Cys-less parent (C18, C29, C106, C125 to Thr) in which T29C restores the natural Cys29; also called spin-labeled GCAP1^CL(T29C); source: E. coli BL21(DE3), co-expressed with yeast N-myristoyl CoA transferase, purified, labelled with MTSSL
As to B5, the “stoichiometry N” value in series [5] is 4.

B6: GCAP1^CL(E57C), nitroxide spin-labelled (natural protein, bovine, UniProt P46065 1-205, looked up)
chain: MGNIMSGKSVEELSSTETHQWYKKFMTETPSGQLTLYEFRQFFGLKNLSPWASQYVCQMFETFDFNKDGYIDFMEYVAALSLVLKGKVEQKLRWYFKLYDVDGNGTIDRDELLTIIRAIRAINPTSDSTMTAEEFTDTVFSKIDVNGDGELSLEEFMEGVQKDQMLLDTLTRSLDLTRIVRRLQNGEQDEEGASGRETEAAEADG
modifications: N-terminal myristoylation; MTSSL nitroxide spin-label on Cys57
notes: GCAP1, bovine, D6S background, Cys-less (all four native Cys C18, C29, C106, C125 to Thr), with a single Cys at 57; source: E. coli BL21(DE3), co-expressed with yeast N-myristoyl CoA transferase, purified, labelled with MTSSL
With B6, the binding result in series [2] is listed as “binds”.
